The results in this text go back to the supplement of paper PMC12042874.

± gives the uncertainty stated by the source.

A short description of this series: amyloid nucleation score (Sup35N fusion, yeast selection) (log enrichment); library NNK2; higher = more nucleation; inactive = no reads after selection. The method in brief:
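The nucleation score is a DiMSum log enrichment of output over input reads, centred on the mode score of non-aggregating sequences. Sequences under 100 input reads were excluded, and reads came from Illumina sequencing of plasmid inserts. Psi-negative yeast expressing Sup35N fused to peptides of 20 random codons were induced with 100 μM copper sulfate for 24 hours and grown 7 days at 30°C on medium lacking adenine and uracil. Random libraries had three technical output replicates.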

Substance SDNVLNDSSCLLYINFGAGQ gave an amyloid nucleation score of 2.69 ± 0.15.

As for SVGQMQLT, the amyloid nucleation score amounted to 0.707 ± 0.35.

Consider LGYLIPNDEYFILWVIVCWN, for which the amyloid nucleation score is -0.024 ± 1.

Substance LHFGAGLTSSVCPSLYSQ returned an amyloid nucleation score of -0.931 ± 1.1.

For the substance QFFRPRDVRERAEWNLAKLV, the amyloid nucleation score was determined as 2.61 ± 0.12.

On to ELLGVQFRSRKYAATQNQWP, for which the amyloid nucleation score was found to be 2.03 ± 0.19.

For the substance SIFCGPDVVNTGPKLG, the amyloid nucleation score was determined as 0.751 ± 0.6.

YVRYGP returned an amyloid nucleation score of -0.289 ± 0.26.

KCEYGLSVKYCVGQTGGN displayed an amyloid nucleation score of 1.17 ± 0.48.

Turning to VGETLLSFCINWRVGYMFGN, the amyloid nucleation score was -0.518 ± 0.5.

With FMRGLMARLCER, the amyloid nucleation score amounted to 0.293 ± 0.4.

Take YLACFTARL: the amyloid nucleation score amounted to 3.91 ± 0.049.

As to FSDWIWTYCSQSFNGQE, the amyloid nucleation score is -0.817 ± 0.76.

The substance EFIEYTSFYWWNLLRLGVHS gave an amyloid nucleation score of -0.61 ± 0.23.

Consider NLNDLVVLELYSRFLLNWFE, for which the amyloid nucleation score is -0.282 ± 0.46.

For KFTVDFYLTACTGTKIDFMV, the amyloid nucleation score amounted to 5.981 ± 0.04.

Regarding GLGYSLICNLTSICGKNNV, the amyloid nucleation score is -0.147 ± 1.1.

In the case of TKSGCRGIGHSSVVSS, the amyloid nucleation score amounted to 1.19 ± 0.37.

CVYRASIVRSRSNYEAVWYS had an amyloid nucleation score of 0.341 ± 0.24.

Substance PQVNPYLNLCRLTQDMLLHR had an amyloid nucleation score of 0.832 ± 0.15.

With NSFYRCYVRCIVSVRFLCCH, the amyloid nucleation score is 5.008 ± 0.035.

With MVILVLFASTVLQYTVPFWV, the amyloid nucleation score came to 0.247 ± 0.5.

For the substance FNIPGHSH, the amyloid nucleation score was -1.51 ± 0.78.

Turning to ECRFKDTATRFRQSLRFYNM, the amyloid nucleation score entry is “inactive”.

With LNIAMVASNGRSVAVRSSGG, the amyloid nucleation score is 0.113 ± 0.5.

Substance FCVLIGGCFFGNSK gave an amyloid nucleation score of 6.157 ± 0.038.

VLRANGCWLFMLHNLIYLWL had an amyloid nucleation score of 0.172 ± 0.65.

ERYKCVYDNDRLMSLTSPDL yielded an amyloid nucleation score of -0.429 ± 0.29.

LELHMGNLSSSTAYWLRRYS displayed an amyloid nucleation score of -0.426 ± 0.48.

Regarding NELVSLQVIWIF, the amyloid nucleation score was -0.098 ± 0.79.

Turning to RILWK, the amyloid nucleation score entry was “inactive”.

For AFPKLRAGSSLLCA, the amyloid nucleation score was determined as 0.74 ± 0.29.

In turn, VRKGCLTRACWRGCECMQGG came in with an amyloid nucleation score of 2.03 ± 0.12.

TFHRS showed an amyloid nucleation score of 1.05 ± 0.29.

Consider NTLRMIPADFPSGRLEQTKV, for which the amyloid nucleation score was 0.552 ± 0.4.

With CEYYVHLRY, the amyloid nucleation score is -0.702 ± 0.49.

Substance PLVAMGMIINNI yielded an amyloid nucleation score of -1.74 ± 0.48.

Take SLRLCLDTMEFRVFKNLGRV: the amyloid nucleation score was 1.45 ± 0.099.

Regarding KEAPFCASGLPD, the amyloid nucleation score is -0.324 ± 1.1.

Substance ICTFYDTGLWVIYSVTRKAR displayed an amyloid nucleation score of -0.057 ± 0.65.

Take SSVHPPEPRINFFSSDGCIA: the amyloid nucleation score entry was “inactive”.

In turn, TFGYCISLMTLTFVH yielded an amyloid nucleation score of -0.239 ± 0.28.

In the case of TMQIFMKSMINSGICSTYHL, the amyloid nucleation score turned out to be 3.47 ± 0.08.

With RTPCVHMPHAVSLGLVALLL, the amyloid nucleation score was -0.318 ± 0.76.

TWRYRKMFASASFA had an amyloid nucleation score of 0.33 ± 0.16.

As to ICGVKRKKNVILSYFISMEY, the amyloid nucleation score entry is “inactive”.

Regarding RRFLYPVGRGICMENADPFG, the amyloid nucleation score turned out to be 1.29 ± 0.44.

IIQISSYSALWFRW returned an amyloid nucleation score of 0.724 ± 0.14.

For GNMYLSEVNVTC, the amyloid nucleation score was -0.78 ± 1.1.

NLCGCAMVCWVPF yielded an amyloid nucleation score of -0.217 ± 0.54.

Substance SFGNYRSVWYVTDVFAHIHL came in with an amyloid nucleation score of 8.335 ± 0.056.

Substance SSMDFVHCSWAVWHLGSFLC gave an amyloid nucleation score of -1.01 ± 0.78.

Turning to RDNCVWYTGHSLKRMRIAKA, the amyloid nucleation score result was “inactive”.

As to HGGGVLHIFLNIAPLVS, the amyloid nucleation score stood at 1.52 ± 0.28.

FSVRVTSRFIRYEGSFHFSK gave an amyloid nucleation score of 0.032 ± 0.76.

Regarding KKACSLFTRGFGRYRNTYEV, the amyloid nucleation score entry was “inactive”.

FRFTQDMDFRAQFDELSWRL showed an amyloid nucleation score of 2 ± 0.28.

Turning to VFKFLSAISPFKGD, the amyloid nucleation score worked out at 0.551 ± 0.38.

The substance IKYYVTVWSLESDTAWVGGL came in with an amyloid nucleation score of 0.196 ± 0.45.

FLSLIGKSRS: the amyloid nucleation score entry was “inactive”.

The substance NRDKF displayed an amyloid nucleation score of -1.07 ± 0.28.

Take TGVKRIMSGSIIFPFLAVSF: the amyloid nucleation score is -0.751 ± 1.1.

Take ILKIAARIYLGLWTVFDWCG: the amyloid nucleation score was 0.523 ± 0.27.

Regarding CRWTASAIHARGRVSDRMRD, the amyloid nucleation score stood at 0.05 ± 0.29.

In turn, LFWFIYGSYRTVRACGRYSN came in with an amyloid nucleation score of 0.516 ± 0.64.

In the case of CLLYDQGFWQAGVLNVVAAR, the amyloid nucleation score was -0.085 ± 0.29.

The substance ASSWGVNGRVNKISRTG came in with an amyloid nucleation score of 1.32 ± 0.18.

In turn, CCWRSNSRNTNVIPNLSLFR gave an amyloid nucleation score of 3.94 ± 0.04.

QFHADSRQGFNVSEMLCWDG: the amyloid nucleation score is -0.393 ± 0.49.

As for NWASKTFYGSYGSRYCQFGE, the amyloid nucleation score worked out at 1.07 ± 0.59.

Consider ISLSLFRNGPIRMAKGSAWM, for which the amyloid nucleation score was 6.081 ± 0.036.

Take DHSEYSVITKFVLHRSCSQG: the amyloid nucleation score was 8.451 ± 0.067.

In the case of VKLIGKITELGKNRMLMLWT, the amyloid nucleation score was found to be 0.429 ± 0.28.

As for CLWHWSNGRNVGKIYLFAVT, the amyloid nucleation score was -0.377 ± 0.24.

In turn, WLDLTYFFSRLGVDVISLQ yielded an amyloid nucleation score of -0.468 ± 0.48.

For VVERKLVMHYGMEMYTVHDG, the amyloid nucleation score was 0.971 ± 0.51.

As for YDYYLMVISFRFVNFYNGVG, the amyloid nucleation score result was “inactive”.

SVLMDYNSKWWDRMSSFIRP gave an amyloid nucleation score of -0.272 ± 0.48.

LDIYLLDMLWPLCAVLSNIG displayed an amyloid nucleation score of -0.541 ± 0.38.

Take HNFVFLGKFAYTWKWMKMLS: the amyloid nucleation score result was “inactive”.

Substance HFRSLALISLAEKFITRIEK gave an amyloid nucleation score of -0.13 ± 0.22.

With GSYFGHNIHLGAVWPIIGYP, the amyloid nucleation score stood at 0.117 ± 0.3.

FSSNLISPSVEISCVLIWLG registered an amyloid nucleation score of 5.67 ± 0.074.

Substance TIEGALSSS returned an amyloid nucleation score of 0.931 ± 0.22.

On to VPSFRYCTSYQTATSLR, for which the amyloid nucleation score is 0.17 ± 0.33.

Regarding RITVEKHSQCALMLHRQYCV, the amyloid nucleation score was determined as 1.39 ± 0.16.

Take QCGGIGFLILLNVCGDGLWI: the amyloid nucleation score came to 4.37 ± 0.092.

Substance NDDKRSRLMRWETSKIRSSV returned an amyloid nucleation score of 3.89 ± 0.052.

PRVRSAVQSLRGVKYCLGRR: the amyloid nucleation score was -0.531 ± 0.63.

Take IQYPLFSCTYEGFFGDRYMA: the amyloid nucleation score is -0.495 ± 0.55.

The substance CDVRSPSF had an amyloid nucleation score of -1.02 ± 0.3.

SDSYAILLPC: the amyloid nucleation score was 0.087 ± 0.79.

With VFVFFGDKW, the amyloid nucleation score result was “inactive”.

As for TFVITLNGHSCQVGTITPRN, the amyloid nucleation score is 8.012 ± 0.04.

The substance AQVKKLDRARCRFQRVV registered an amyloid nucleation score of -1.4 ± 0.78.

For SMPWYMYCIVYYVDVYCCNI, the amyloid nucleation score was determined as 6.566 ± 0.039.

As to LFSKDVSRTLGPACFICEGT, the amyloid nucleation score turned out to be 2.78 ± 0.072.

Take IRQAWLYS: the amyloid nucleation score was 0.615 ± 0.13.

HRLLVPDHTMYVSLKRKGLR had an amyloid nucleation score of 0.092 ± 1.1.

QSTFFCTLQLGSKYFKECLS: the amyloid nucleation score is -1.22 ± 0.61.

Substance GCDLKLGVKCLKNERRVPEF displayed an amyloid nucleation score of 0.382 ± 0.8.

The substance TPWSSVWSVALSGARMGPRS had an amyloid nucleation score of 3.71 ± 0.079.
